# Reference: patent US20230203107A1, “PEPTIDE FOR TREATING SEPSIS DERIVED FROM RV3364C PROTEIN OF MYCOBACTERIUM TUBERCULOSIS” (priority 2021, published 2023)
# Assays:
# macrophages (BMDM) = format: cell-based, mouse; details: 1 μg/ml, 18 hours, ELISA
# SNX9 (sorting nexin 9) = molecular target: T1, SNX9 (sorting nexin 9) (Homo sapiens, UniProt Q9Y5X1); assay: HuProt human proteome microarray, binding of rRv3364c; details: cell-free protein microarray, signal at 532 nm
# T1 construct: containing 20,000 or more full-length recombinant human proteins; purchased CDI Labs, USA (HuProt Human Proteome Microarray)
# T1 sequence (Q9Y5X1 whole entry): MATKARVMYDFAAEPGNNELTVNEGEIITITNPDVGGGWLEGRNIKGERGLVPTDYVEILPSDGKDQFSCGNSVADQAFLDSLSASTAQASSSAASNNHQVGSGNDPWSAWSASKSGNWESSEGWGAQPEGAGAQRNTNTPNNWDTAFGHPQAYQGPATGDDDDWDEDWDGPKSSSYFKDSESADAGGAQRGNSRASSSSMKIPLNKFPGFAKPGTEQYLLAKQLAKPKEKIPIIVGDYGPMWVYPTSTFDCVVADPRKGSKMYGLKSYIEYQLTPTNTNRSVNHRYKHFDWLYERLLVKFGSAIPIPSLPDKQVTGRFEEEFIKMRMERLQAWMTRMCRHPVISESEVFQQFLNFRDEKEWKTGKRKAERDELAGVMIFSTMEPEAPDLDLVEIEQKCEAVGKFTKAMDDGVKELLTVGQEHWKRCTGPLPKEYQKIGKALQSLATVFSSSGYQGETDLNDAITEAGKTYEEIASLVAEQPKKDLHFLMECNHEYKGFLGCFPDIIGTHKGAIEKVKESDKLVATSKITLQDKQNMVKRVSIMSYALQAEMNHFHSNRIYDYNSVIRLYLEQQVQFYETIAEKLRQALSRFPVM
# Excerpt: (§1) FIGS. 1A and 1B illustrate results of screening candidate proteins predicted to potentially interact with rRv3364c in a CDI HuProt™ Human Proteome Microarray. Each figure illustrates a section of a protein array showing a positive response. A signal at 532 nm was stronger in an rRv3364c group than in a control group;
# (§2) In order to identify a protein binding to rRv3364c, human protein microarrays (CDI Labs, USA) containing 20,000 or more full-length recombinant human proteins were used. Specifically, the protein microarrays were treated with a blocking buffer (2% BSA in PBS, 0.1% […]) for 2 hours. 3 μg of […] on the microarrays at 4° C. for 8 hours. Thereafter, each array was treated with 1 μg of streptavidin fluorescence Alexa Fluor 532 nm at 4° C. for 1 hour. Microarray results were detected using a GenePix 4100A microarray laser scanner (Molecular Devices, USA).
# (§3) A customized protein binding assay was used to identify interacting proteins, and candidate proteins capable of potentially interacting with rRv3364c were selected. […] In FIG. 1A, an affinity score (A score) is a normalized signal intensity of two overlapping points, and a specificity score (B score) is a difference between the affinity score of the protein and the protein ranked next thereto.
# [1] = molecular target: T2, YEATS4 (YEATS domain-containing protein 4) (Homo sapiens, UniProt O95619); assay: as above; details: cell-free protein microarray, signal at 532 nm
# T2 construct: containing 20,000 or more full-length recombinant human proteins; purchased CDI Labs, USA (HuProt Human Proteome Microarray)
# T2 sequence (O95619 whole entry, the tested form may be a part): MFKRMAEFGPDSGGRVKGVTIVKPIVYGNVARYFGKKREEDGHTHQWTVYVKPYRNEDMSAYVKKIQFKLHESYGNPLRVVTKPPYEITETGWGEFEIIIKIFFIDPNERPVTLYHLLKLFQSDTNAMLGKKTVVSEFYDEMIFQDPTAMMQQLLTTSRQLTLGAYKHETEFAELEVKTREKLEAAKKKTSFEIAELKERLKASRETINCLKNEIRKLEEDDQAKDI
# Excerpt: as §1, §2, §3
# [2] = molecular target: T3, EGFLAM (EGF-like Fibronectin type III and Laminin G domains) (Homo sapiens, UniProt Q63HQ2); assay: as above; details: cell-free protein microarray, signal at 532 nm
# T3 construct: containing 20,000 or more full-length recombinant human proteins; purchased CDI Labs, USA (HuProt Human Proteome Microarray)
# T3 sequence (Q63HQ2 25-1017): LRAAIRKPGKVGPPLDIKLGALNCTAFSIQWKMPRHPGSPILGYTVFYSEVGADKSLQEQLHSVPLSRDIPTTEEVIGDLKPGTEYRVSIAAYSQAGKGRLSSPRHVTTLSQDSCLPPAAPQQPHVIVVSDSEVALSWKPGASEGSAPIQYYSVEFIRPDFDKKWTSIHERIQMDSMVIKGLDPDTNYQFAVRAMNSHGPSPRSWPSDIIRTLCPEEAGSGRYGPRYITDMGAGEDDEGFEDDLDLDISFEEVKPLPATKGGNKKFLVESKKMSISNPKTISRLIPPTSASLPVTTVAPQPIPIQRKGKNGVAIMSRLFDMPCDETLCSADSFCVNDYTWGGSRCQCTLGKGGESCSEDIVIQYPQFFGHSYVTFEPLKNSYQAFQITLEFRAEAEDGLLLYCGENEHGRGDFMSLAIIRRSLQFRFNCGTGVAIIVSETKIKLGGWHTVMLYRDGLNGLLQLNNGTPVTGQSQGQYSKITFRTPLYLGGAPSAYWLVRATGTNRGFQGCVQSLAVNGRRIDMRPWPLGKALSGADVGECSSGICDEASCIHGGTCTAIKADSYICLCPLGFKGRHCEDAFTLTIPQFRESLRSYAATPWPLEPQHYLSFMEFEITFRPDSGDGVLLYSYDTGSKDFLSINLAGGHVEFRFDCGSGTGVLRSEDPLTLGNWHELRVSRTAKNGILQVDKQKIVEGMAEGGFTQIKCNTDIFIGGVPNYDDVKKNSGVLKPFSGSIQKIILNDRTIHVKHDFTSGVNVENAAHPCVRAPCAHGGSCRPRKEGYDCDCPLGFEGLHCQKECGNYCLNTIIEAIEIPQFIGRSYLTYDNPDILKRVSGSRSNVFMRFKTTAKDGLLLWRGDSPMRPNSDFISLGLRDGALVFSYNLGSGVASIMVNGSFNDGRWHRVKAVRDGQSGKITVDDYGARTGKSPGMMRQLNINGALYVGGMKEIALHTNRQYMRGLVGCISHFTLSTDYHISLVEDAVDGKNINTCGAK
# Excerpt: as §1, §2, §3
# [3] = molecular target: T4, ZBTB46 (zinc finger and BTB domain-containing 46) (Homo sapiens, UniProt Q86UZ6); assay: as above; details: cell-free protein microarray, signal at 532 nm
# T4 construct: containing 20,000 or more full-length recombinant human proteins; purchased CDI Labs, USA (HuProt Human Proteome Microarray)
# T4 sequence (Q86UZ6 1-589): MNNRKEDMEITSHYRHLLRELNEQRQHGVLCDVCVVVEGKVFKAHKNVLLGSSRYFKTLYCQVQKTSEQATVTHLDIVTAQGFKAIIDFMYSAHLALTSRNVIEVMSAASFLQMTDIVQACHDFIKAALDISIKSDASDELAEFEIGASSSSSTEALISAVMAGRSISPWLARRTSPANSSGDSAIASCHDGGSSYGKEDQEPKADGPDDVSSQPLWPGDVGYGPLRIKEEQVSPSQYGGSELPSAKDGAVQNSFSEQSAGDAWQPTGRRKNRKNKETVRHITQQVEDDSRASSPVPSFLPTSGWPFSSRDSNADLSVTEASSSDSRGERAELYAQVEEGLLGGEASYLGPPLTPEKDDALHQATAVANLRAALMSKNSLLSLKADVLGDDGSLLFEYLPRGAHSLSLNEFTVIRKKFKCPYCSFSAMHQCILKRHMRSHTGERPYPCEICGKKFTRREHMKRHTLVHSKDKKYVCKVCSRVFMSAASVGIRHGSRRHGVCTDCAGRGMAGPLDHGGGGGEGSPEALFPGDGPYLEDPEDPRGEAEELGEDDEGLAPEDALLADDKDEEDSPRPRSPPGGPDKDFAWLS
# Excerpt: as §1, §2, §3
# cathepsin G = molecular target: T5, cathepsin G (Homo sapiens, UniProt P08311); details: membrane protein of macrophages; cited from earlier work
# T5 sequence (P08311 21-244): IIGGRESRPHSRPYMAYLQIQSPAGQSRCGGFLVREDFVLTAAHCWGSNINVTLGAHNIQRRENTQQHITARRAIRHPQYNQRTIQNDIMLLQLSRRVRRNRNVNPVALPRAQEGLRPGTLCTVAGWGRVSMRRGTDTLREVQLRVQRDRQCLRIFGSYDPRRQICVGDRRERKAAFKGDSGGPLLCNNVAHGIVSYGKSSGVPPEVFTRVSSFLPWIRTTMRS
# SNX9 [4] = molecular target: T6, SNX9 (Mus musculus, UniProt Q91VH2); assay: Co-immunoprecipitation, cell fractionation and immunostaining in macrophages and HEK293T cells; format: cell-based; details: cell fractionation (Raw264.7) and immunostaining (BMDM), 1 μg/ml rRv3364c, time course
# T6 construct: harvesting BMDM cells with different treatment times of 1 μg/ml rRv3364c, performing immunoprecipitation (IP) with αHis; endogenous in cells; host or cells: mouse BMDM, Raw264.7
# T6 sequence (Q91VH2 whole entry): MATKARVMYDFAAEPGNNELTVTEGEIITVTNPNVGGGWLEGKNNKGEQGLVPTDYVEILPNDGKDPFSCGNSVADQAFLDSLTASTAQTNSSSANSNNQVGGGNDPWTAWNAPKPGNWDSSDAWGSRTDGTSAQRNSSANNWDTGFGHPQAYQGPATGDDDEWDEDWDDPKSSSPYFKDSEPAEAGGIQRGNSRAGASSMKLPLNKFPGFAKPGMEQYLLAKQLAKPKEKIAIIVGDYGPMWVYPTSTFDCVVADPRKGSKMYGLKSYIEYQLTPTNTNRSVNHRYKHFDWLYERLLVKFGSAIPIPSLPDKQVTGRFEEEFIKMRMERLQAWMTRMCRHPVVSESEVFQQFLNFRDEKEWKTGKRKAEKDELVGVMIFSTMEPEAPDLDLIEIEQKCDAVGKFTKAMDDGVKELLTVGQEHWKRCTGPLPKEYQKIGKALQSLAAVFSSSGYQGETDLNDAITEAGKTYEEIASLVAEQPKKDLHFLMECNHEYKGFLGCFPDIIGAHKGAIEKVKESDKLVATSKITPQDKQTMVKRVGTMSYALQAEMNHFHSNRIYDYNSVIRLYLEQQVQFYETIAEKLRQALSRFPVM
# SNX9 [5] = assay: as above; format: cell-based; details: macrophages and HEK293T cells, 1 μg/ml rRv3364c, 15 to 30 min
# YEATS4 [6] = molecular target: T7, YEATS4 (Mus musculus, UniProt Q9CR11); assay: as above; format: cell-based; details: cell fractionation (Raw264.7) and immunostaining (BMDM), 1 μg/ml rRv3364c, time course
# T7 construct: harvesting BMDM cells with different treatment times of 1 μg/ml rRv3364c, performing immunoprecipitation (IP) with αHis; endogenous in cells; host or cells: mouse BMDM, Raw264.7
# T7 sequence (Q9CR11 whole entry): as the sequence (O95619 whole entry, the tested form may be a part) above, with A224T counted along it
# YEATS4 [7] = assay: as above; format: cell-based; details: macrophages and HEK293T cells, 1 μg/ml rRv3364c, 15 to 30 min
substance,measurement,setting,value
"rRv3364c: recombinant Rv3364c protein of MTB H37Rv with N-terminal 6xHis tag, expressed in E. coli, 13 kDa",rRv3364c-induced cytotoxicity,macrophages,not observed
same,"production of pro-inflammatory cytokines (TNF-α, IL-6, and IL-12p40) and anti-inflammatory cytokines (IL-10)","macrophages (BMDM); BMDM, through TLR4/MyD88/TRAF6/TBK1-IRAK1 pathway",promoted the production
same,production of rRv3364c-induced inflammatory cytokines in SNX9−/− compared to SNX9+/+ macrophages,macrophages (BMDM); SNX9−/− BMDM,significantly reduced
same,affinity with rRv3364c,SNX9 (sorting nexin 9),high affinity
same,affinity with rRv3364c,[1],high affinity
same,affinity with rRv3364c,[2],high affinity
same,affinity with rRv3364c,[3],high affinity
same,enzymatic activity of cathepsin G,cathepsin G,inhibit its enzymatic activity
same,intracellular position of binding to SNX9,SNX9 [4],initially bound to SNC9 in the cytoplasm
same,interaction with endogenous and extrinsic SNX9 (co-immunoprecipitation),SNX9 [5],strongly interacted
same,intracellular position of binding to YEATS4,YEATS4 [6],migrated to the nucleus to bind to YEATS4
same,interaction with endogenous and extrinsic YEATS4 (co-immunoprecipitation),YEATS4 [7],strongly interacted
